Patent US20200399394A1 (published 2020)

T1: human CD39 (ectonucleoside triphosphate diphosphohydrolase 1) (UniProt P49961 1-510)
T1 chain: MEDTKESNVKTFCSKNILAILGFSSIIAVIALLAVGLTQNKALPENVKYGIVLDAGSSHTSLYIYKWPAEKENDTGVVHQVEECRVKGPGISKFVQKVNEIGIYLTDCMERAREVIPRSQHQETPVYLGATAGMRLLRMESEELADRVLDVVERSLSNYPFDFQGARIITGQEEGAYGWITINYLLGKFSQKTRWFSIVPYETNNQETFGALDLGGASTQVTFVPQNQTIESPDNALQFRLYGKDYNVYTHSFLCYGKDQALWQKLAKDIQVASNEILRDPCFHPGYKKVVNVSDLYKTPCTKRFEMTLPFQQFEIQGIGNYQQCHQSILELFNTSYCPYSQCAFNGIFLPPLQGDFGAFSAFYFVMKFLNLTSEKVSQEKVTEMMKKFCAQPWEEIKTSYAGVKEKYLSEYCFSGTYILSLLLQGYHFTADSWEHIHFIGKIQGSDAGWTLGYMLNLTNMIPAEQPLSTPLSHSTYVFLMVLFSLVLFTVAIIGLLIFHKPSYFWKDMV


Experiments:
[1] = target: T1, human CD39 (ectonucleoside triphosphate …); assay: MSD equilibrium; Fab
[2] = target: T1, human CD39 (ectonucleoside triphosphate …); assay: ForteBio (BLI); IgG, monovalent

Row | Binder | Kd [1] [nM] | Kd [2] [nM]
1 | SRF365-C (antibody, V domains shown) VH: QVQLVQSGAEVKKPGSSVKVSCKASGGTFSDKAISWVRQAPGQGLEWMGSILPIFGTANYAQKFQGRVTITADESTSTAYMELSSLRSEDTAVYYCAREAGYYRYRYFDLWGRGTLVTVSS VL: EIVMTQSPATLSVSPGERATLSCRASQSVSSNLAWYQQKPGQAPRLLIYGASTRATGIPARFSGSGSGTEFTLTISSLQSEDFAVYYCQQHALWPLTFGGGTKVEIKR [SRF365-C, listing 1 of 2 here] | 0.051 | –
2 | SRF360-C (antibody, V domains shown) VH: EVQLVESGGGLVKPGGSLRLSCAASGFTFSSYRMNWVRQAPGKGLEWVSSISSSSSSIWYADSVKGRFTISRDNAKNSLYLQMNSLRAEDTAVYYCAKGPRYDSSGYRWRYGMDVWGQGTTVTVSS VL: DIQMTQSPSSLSASVGDRVTITCRASQSISSYLNWYQQKPGKAPKLLIYAASSLQSGVPSRFSGSGSGTDFTLTISSLQPEDFATYYCQQLYVDPPWTFGGGTKVEIKR [SRF360-C, listing 1 of 2 here] | 0.044 | –
3 | SRF367-C (antibody, V domains shown) VH: QVQLVQSGAEVKKPGSSVKVSCKASGGTFSSEGISWVRQAPGQGLEWMGSILPIFGTANYAQKFQGRVTITADESTSTAYMELSSLRSEDTAVYYCAREAGYYRYRYFDLWGKGTLVTVSS VL: EIVMTQSPATLSVSPGERATLSCRASQSVSSNLAWYQQKPGQAPRLLIYGASTRATGIPARFSGSGSGTEFTLTISSLQSEDFAVYYCQQHALWPLTFGGGTKVEIKR [SRF367-C, listing 1 of 2 here] | – | 1.57
4 | SRF370-C (antibody, V domains shown) VH: QVQLVQSGAEVKKPGSSVKVSCKASGGTFSTYAIGWVRQAPGQGLEWMGGIIPAFGTANYAQKFQGRVTITADESTSTAYMELSSLRSEDTAVYYCARDPVRRSPFDIWGQGTMVTVSS VL: EIVLTQSPATLSLSPGERATLSCRASQSVSSYLAWYQQKPGQAPRLLIYDSSNRATGIPARFSGSGSGTDFTLTISSLEPEDFAVYYCQQSFLWPRTFGGGTKVEIKR | – | 2.59
5 | SRF360-C (antibody, V domains shown) VH: EVQLVESGGGLVKPGGSLRLSCAASGFTFSSYRMNWVRQAPGKGLEWVSSISSSSSSIWYADSVKGRFTISRDNAKNSLYLQMNSLRAEDTAVYYCAKGPRYDSSGYRWRYGMDVWGQGTTVTVSS VL: DIQMTQSPSSLSASVGDRVTITCRASQSISSYLNWYQQKPGKAPKLLIYAASSLQSGVPSRFSGSGSGTDFTLTISSLQPEDFATYYCQQLYVDPPWTFGGGTKVEIKR [SRF360-C, listing 2 of 2 here] | – | 0.772
6 | SRF365-C (antibody, V domains shown) VH: QVQLVQSGAEVKKPGSSVKVSCKASGGTFSDKAISWVRQAPGQGLEWMGSILPIFGTANYAQKFQGRVTITADESTSTAYMELSSLRSEDTAVYYCAREAGYYRYRYFDLWGRGTLVTVSS VL: EIVMTQSPATLSVSPGERATLSCRASQSVSSNLAWYQQKPGQAPRLLIYGASTRATGIPARFSGSGSGTEFTLTISSLQSEDFAVYYCQQHALWPLTFGGGTKVEIKR [SRF365-C, listing 2 of 2 here] | – | 0.556
7 | SRF367-C (antibody, V domains shown) VH: QVQLVQSGAEVKKPGSSVKVSCKASGGTFSSEGISWVRQAPGQGLEWMGSILPIFGTANYAQKFQGRVTITADESTSTAYMELSSLRSEDTAVYYCAREAGYYRYRYFDLWGKGTLVTVSS VL: EIVMTQSPATLSVSPGERATLSCRASQSVSSNLAWYQQKPGQAPRLLIYGASTRATGIPARFSGSGSGTEFTLTISSLQSEDFAVYYCQQHALWPLTFGGGTKVEIKR [SRF367-C, listing 2 of 2 here] | 0.24 | –
